From patent US20260159575A1 come the findings set out here.

The target in this assay is MTBR-tau354 (human) (UniProt P10636). Description: target engagement in human CSF, ex vivo; multiple dose 3000 mg Q4W, E2814 CSF concentrations 200-400 ng/mL; bound/(free+bound) proxy peptide.

B1: antibody E2814 (antibody, human IgG1, kappa, V domains shown)
VH: EVQLLESGGGLVQPGGSLRLSCAASGYTFTTYWITWVRQAPGKGLEWVSDIYPGSSISNYNEKFKSRFTISVDNSKNTLYLQMNSLRAEDTAVYYCAREDGYDAWFAYWGQGTLVTVSS
VL: DIQMTQSPSSLSASVGDRVTITCRSSQSILHSNGNTYLEWYQQKPGKAPKLLISKVSNRFSGVPSRFSGSGSGTDFTLTISSLQPEDFATYYCFQGSHVPFTFGQGTKLEIKR
For B1, the target engagement (E2814-bound MTBR-tau as percent of total free plus bound) was determined as 70%.
